In the nanobody polyreactivity screen of Harvey et al. (2022):

assay: yeast display, Sf9 membrane polyspecificity reagent, FACS + sequencing; frameworks hold sequencing errors
In short: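 Galactose-induced (36–48 hours) yeast carrying a synthetic nanobody display library were exposed to 10% biotinylated, detergent-solubilized Sf9 membrane reagent at 4 °C for 1 hour. FACS followed streptavidin microbead enrichment, using low and high (top ~1%) gates for expression (anti-HA) and reagent binding (streptavidin). Colony PCR, MiSeq 2 × 250 sequencing and CDR-length filtering followed. Labels for polyreactivity reflect the gate of origin.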

Q: For “QVQLVESGGGLFQAGGSLRLSCAASGRIFDYNVMGWYRQAPGKERELVADINGSGGGTNYADSVKGRFTISRDNAKNTVYLQMNSLKPEDTAVYYCNADSYEYHVPYYDYRYDYWGQGTQVTVSS”, which “polyreactivity (PSR sort gate)” value is on record?
A: low polyreactivity

Q: For “QVQLVESGGGLFQAGGSLRLSCAASGRIFGFYAMGWYRQAPGKERELVARITLSGGRTYYADSVKGRFTISRDNAKNTVYLQMNSLKPEDTAVYYCAADSIGRLWGYGYWGQGTQVTVSS”, which “polyreactivity (PSR sort gate)” value is on record?
A: high polyreactivity

Q: With “QVQLVESGGGLFQAGGSLRLSCAASGRIFNSNTMGWYRPAPGKDRELVARIDTGGGSTYADSVKGRFTISRDNAKNTVYLQMNSLQPEDTAVYHCNKIGRWRSWGSTSLVSMDYWGQGTKVTVSS” as the sequence, how does the “polyreactivity (PSR sort gate)” value read?
A: low polyreactivity

Q: For “QVQLVESGGGLFQAGGSLRLSCAASGRTFGYYAMGWYRQAPGKERELVAAITGDATTYYADSVKGRFTISRDNAKNTVYLQMNSLQPEDTAVYYCDALFTPALSEYDYWGQGTQVTVSS”, which “polyreactivity (PSR sort gate)” value is on record?
A: high polyreactivity

Q: With “QVQLVESGGGLFQAGGSLRLSCAASGRTFVHNAMGWYRQAPGKERDLVAVITSGARTTYADSVKGRFTISRDNAKNTVYLQMNSLKPEDTAVYYFAAGTFSVIFSYKYRHYYYWGQGTQVTVSS” as the sequence, how does the “polyreactivity (PSR sort gate)” value read?
A: low polyreactivity

Q: Which “polyreactivity (PSR sort gate)” value does the source give for “QVQLVESGGGLFQAGGSLRLSCAASGRTFYSNDMGWYRQAPGNERELVAAISWRSGSTHYADSVKGRFTISRDNAKNTVYFQMNSLKPEDTAVFYCAARRRDLVPHYYWGQGTQVTVSS” here?
A: high polyreactivity

Q: Which “polyreactivity (PSR sort gate)” value does the source give for “QVQLVESGGGLFQAGGSLRLSCAASGSIFDDYAMGWYRQAPGKERELVAAISSSGTSTYYADSVKGRFTISRDNAKNTVYLQMNSLKPEDTAVFYCAARSAILKSGYLMDYWGQGTQVTVSS” here?
A: low polyreactivity

Q: Which “polyreactivity (PSR sort gate)” value does the source give for “QVQLVESGGGLFQAGGSLRLSCAASGSIIRKYAMGWSIQAPGKERELVAAISRRTGNTYYADSVKGRFTISRDNAKNTVYLQMKSLKPEDTAVYYCAADYYSSSSWSEVDSWGQGTQVTVSS” here?
A: high polyreactivity

Q: Which “polyreactivity (PSR sort gate)” value does the source give for “QVQLVESGGGLFQAGGSLRLSCAASGSILTHYAMGWYRQAPGKERELVAGNTSGGTTNYADSVKGRFTISRDNAKNSVYLQMNSLKPEDTAVYYCNADVWICQRFETGYDFDYWGQGTQVTVSS” here?
A: low polyreactivity

Q: Which “polyreactivity (PSR sort gate)” value does the source give for “QVQLVESGGGLFQAGGSLRLSCAASGSISYYNAMGWYRQAPGKERELVATITDSGGSTYYADSVKGRFTISRDIAKNTVYLQMISLKPEDTAVYYCAVDFSEWYSIYDYWGQGTQVTVSS” here?
A: low polyreactivity

Q: Which “polyreactivity (PSR sort gate)” value does the source give for “QVQLVESGGGLFQAGGSLRLSCAASGSTFAPYAMGWYRHATGKERELVAAISNSGGSTYYADSVKGRFTISRDDAKNTVYLQMNCLKPEATAVLYCATLKYPYATSQGYDFWGQCTQVTVSS” here?
A: high polyreactivity

Q: Which “polyreactivity (PSR sort gate)” value does the source give for “QVQLVESGGGLFQAGGSLRLSCAASGSTFFGYAMGWYRQAPGKERELVAAISSRGGTTNYADSVKGRFTISRDNAKNTVYLQMNSLKPEDNAVYYCNAKDTQEYNRVKYNYWGQGTQVTVSS” here?
A: high polyreactivity

Q: With “QVQLVESGGGLFQAGGSLRLSCAASGSTFGFYAIGWYRQAPGKERELVARITYSGGSTYYADSVKGRFTISRDNAKITVYLQLNSLIPEDNAVSYCAARSWTHYFRYDYWGQGTQVTVSS” as the sequence, how does the “polyreactivity (PSR sort gate)” value read?
A: high polyreactivity

Q: Which “polyreactivity (PSR sort gate)” value does the source give for “QVQLVESGGGLFQAGGSLRLSCAASGSTFRFNAMGWYRQAPGKERELVAAISRSGGTTYYADSVKGRFTISRDNAKNTVYLQMNSLKPEDTAVYYCNAQWWRYWPSQVIFDYWGQGTQVTVSS” here?
A: high polyreactivity

Q: With “QVQLVESGGGLFQAGGSLRLSCAASGSTFVWYAMGWYRQAPGKEREFVAANTNSGGSTYYADSVKGRFTISRDTAKNTVYLQMNILKPEDTAVYYCAAQSYYFSYHYDYWGQGTQVTVSS” as the sequence, how does the “polyreactivity (PSR sort gate)” value read?
A: low polyreactivity

Q: For “QVQLVESGGGLFQAGGSLRLSCAASGSTFYIYAMGWYRHAPGKERELVARITRGGTTYADSVKGRFTISRDNAKNTVYLQMNSLKPEDTAVYYCNAYISDDRYWSPAIEEDYWGQGTQVTVSS”, which “polyreactivity (PSR sort gate)” value is on record?
A: high polyreactivity

Q: With “QVQLVESGGGLFQAGGSLRLSCAASGSTSRYPMGWYRQAQGQERELVAAITRSGGTTYYADSVKGRFTISRDNAKNTVYLQMYSLKPEDTAVYYCATSDRQVKYDYWGQGTQVTVSS” as the sequence, how does the “polyreactivity (PSR sort gate)” value read?
A: low polyreactivity

Q: For “QVQLVESGGGLFQAGGSLRLSCAASGTFYIYAMGWYRQAPGKERELVAGISFSGGSTYYADSVKGRFTISRDNAKNTVYLQMNSLKPEDTAVYYCAAELYVLPYDYWGQGTQVTVSS”, which “polyreactivity (PSR sort gate)” value is on record?
A: high polyreactivity

Q: Which “polyreactivity (PSR sort gate)” value does the source give for “QVQLVESGGGLFQAGGSLRLSCAPSGRISNKYAMGWYRQAPGKERELVAAISYSGGTTYYADSVKGRFTISRDNAKNTVYLQMNSLKPEDTAGYYCAREWTKGYGYYWGYYWGQGTQVTASS” here?
A: low polyreactivity

Q: With “QVQLVESGGGLFQAGGSLRLSCAPSGSIFQYNAMGWYRQAPGKERELVAAINRRGTRTYYADSVKGRFTISRDNAKNTVYLQMNSLKPEDTAVYYCNKYQSTDVRSSYSAGYGYWGQGTQVTVSS” as the sequence, how does the “polyreactivity (PSR sort gate)” value read?
A: high polyreactivity

Q: For “QVQLVESGGGLFQAGGSLRLSCAPSGSNFSIYAMGWYRQAPGKERELVAAITWGGGSTYYADSVKGRFTISRDNAKNTVYLQMNSLKPEETAVYDCAADSLTWYGTYYYWGQGTQVTVSS”, which “polyreactivity (PSR sort gate)” value is on record?
A: high polyreactivity

Q: Which “polyreactivity (PSR sort gate)” value does the source give for “QVQLVESGGGLFQAGGSLRLSCSASGFIFRGYAMGWSRQAPGKERELVAAISTGGGRTYYADSVKGRFTISRDNAKNTVYLQMNSLKPEDTAVYYCNRLSYTQVLMDYWGQGTQVTVSS” here?
A: high polyreactivity

Q: For “QVQLVESGGGLFQAGGSLRLSSAASGIIFGYYSLGWYRQAPGKERELVAAINQDGSSTYYADSVKGRFTISRDNAKNTVYLQMNSLNPEDTAVYYCNARGVPRQDDRMGYWGQGTQVTVSS”, which “polyreactivity (PSR sort gate)” value is on record?
A: low polyreactivity

Q: For “QVQLVESGGGLFQAGGSLRLSSAASGIIFSTYAMGWYRQAHGKERELVAAITSTGSTNYADSVKGRFTISRDNAKNTVYLQMNSLKPEDTAVYYCAAEGHTAFLVYRVSPLQYDYWGQGTQVTVSS”, which “polyreactivity (PSR sort gate)” value is on record?
A: low polyreactivity

Q: Which “polyreactivity (PSR sort gate)” value does the source give for “QVQLVESGGGLFQAGVSLTLSFAASGSIFDINAMGWYRQEPWKETDLVAAIRSGDRTHYADSVKGRFTISRDNAMNTVYLQMNSLIPEDTAVYYCAADRFIYLNRELDYWGQGTQVTVSS” here?
A: low polyreactivity

Q: With “QVQLVESGGGLFQEGGSLRLSCAASGSTFPSYAMGWYRQAPGKERELVAAINSGGGTNYADSVKGRFTISRDNAKNTVYLQMNSLKADDTEVYYCAKSRYDYTKSEGGYWGQGTQVTVSS” as the sequence, how does the “polyreactivity (PSR sort gate)” value read?
A: low polyreactivity

Q: For “QVQLVESGGGLFRAGGSLRLICAASGITFYGYAMGWYRQAPGKERELVAAITWSGGRTYYADSVKGRFTISRDNAKNTVYLQMNSMKPEDTAVYYCARRTWHSVGYWGQGTQVTVSS”, which “polyreactivity (PSR sort gate)” value is on record?
A: high polyreactivity

Q: With “QVQLVESGGGLGQAGGRLRLTCAASGFTFRPYDMGWYRQAPGKERELVAVIIGGDSTNYADSVQGRFTISRDNAKNTVYLQMNSLKPEDTAVYYCAADYIDRVGWMDYWGQGTQVTVSS” as the sequence, how does the “polyreactivity (PSR sort gate)” value read?
A: low polyreactivity

Q: Which “polyreactivity (PSR sort gate)” value does the source give for “QVQLVESGGGLGQAGGSLLLSCAASGRIFWCNAMGWTRQAPGKERELVAAIRWSGGSTYYADSVKGRFTISRDNAKNTVYLQMNSLKPEDTAVYYCAASPYWSDWTKVDSWGQGTQVTVSS” here?
A: low polyreactivity

Q: Which “polyreactivity (PSR sort gate)” value does the source give for “QVQLVESGGGLGQAGGSLRLSCAASGFIFQANAMGWYRQAPGKERELVAAIDDGDSTYADSVKGRFTISRDNAKNTVYLQMNSLKPEDTAVSYCAPRRNRSYDYWGQGTQVTVSS” here?
A: low polyreactivity

Q: Which “polyreactivity (PSR sort gate)” value does the source give for “QVQLVESGGGLGQAGGSLRLSCAASGFTFVYYAMGWYRPAPGKERELVAAISSRGGSTNYADSVKGRFTISRDNAKNTVYLQMNSLKPEDTAVYYCATYFSIQRRGDYWGQGTQVTVSS” here?
A: high polyreactivity

Q: Which “polyreactivity (PSR sort gate)” value does the source give for “QVQLVESGGGLGQAGGSLRLSCAASGGTFYAYAMGWYRQAPGKEREFVAAISRRGGSTYYADSVKGRFTISRDNAKNTVYLQMHSLKPEDNAVYYCKALYSSSPGAKPWGEYNYWGQGTQVTVSS” here?
A: high polyreactivity

Q: With “QVQLVESGGGLGQAGGSLRLSCAASGLIIQPNAMGWYSPAPGKERELVAAISSSDGSTYYADSVKGRFTISRDNAKNTVYLQMNSLKREDSAVYYCAAGYYFQVEPDLVYIYSYEYWGQGTHVTVSS” as the sequence, how does the “polyreactivity (PSR sort gate)” value read?
A: low polyreactivity

Q: With “QVQLVESGGGLGQAGGSLRLSCAASGRIFFHYAMGWYRPAPGKERELVATITTVGSTYYADSVKGRFTISRDNAKNTVYLQMNSLKPEDTAVYYCAARYISLSGDEYDYWGQGTQVTVSS” as the sequence, how does the “polyreactivity (PSR sort gate)” value read?
A: low polyreactivity

Q: Which “polyreactivity (PSR sort gate)” value does the source give for “QVQLVESGGGLGQAGGSLRLSCAASGRTFYDNAMGWYRPAPGKERELVAAISSSGSSTYYADSVKGRFTISLDNAKNTVYLQKNSLKPEDTAVYYCSASYTDYYFGFGTDVRYGYWGQGTQVTVSS” here?
A: high polyreactivity

Q: Which “polyreactivity (PSR sort gate)” value does the source give for “QVQLVESGGGLGQAGGSLRLSCAASGSIFQPYAMGGYRQAPGKERELVAAISSSGGSTTYADSVKGRFTISRDNAKNTVYLQMNSLKPEDTAVYYCAAEYDGPYTWVDYFYHYGYWGQGTQVTVSS” here?
A: low polyreactivity

Q: Which “polyreactivity (PSR sort gate)” value does the source give for “QVQLVESGGGLGQAGGSLRLSCAASGSTFEGYAMGWYRQAPGKERELVAAISSSGGRTYYADSVKGRFTISRDNAKNTVYLQMNSLKPEDTAVYYCAADVSTAAVRSDSWGQGTQVTVSS” here?
A: low polyreactivity

Q: With “QVQLVESGGGLGQAGGSLRLSCAASGSTFTRYGMGWSRQAPGKERELVAAITTSGSSTYYADSVKGRFTISRDNAKNTVYLQMNSLKPEDTAVYYCAADWSSWGFDYWGQGTQVTVSS” as the sequence, how does the “polyreactivity (PSR sort gate)” value read?
A: low polyreactivity

Q: With “QVQLVESGGGLGQAGGSLRLSCPASGITFVYYAMGWYRQSPGKERELVATITKSGVSTYYADSVKGRFTISRDNAKYTVYLQMNSLKPEDTAVYYCAKDVSYRFYWTYDYWGQGTQVTVSS” as the sequence, how does the “polyreactivity (PSR sort gate)” value read?
A: low polyreactivity

Q: Which “polyreactivity (PSR sort gate)” value does the source give for “QVQLVESGGGLGQAGGSLRLTCAASGSTFWYYAMGWYRQAPGKERELVAAITSGDSTYYADSVKGRFTISRDNAKKTVYLQMNSLKPEDTAVYYCAADLPWEDGYYFYSGYTEYDYWGQGTQVTVSS” here?
A: low polyreactivity

Q: For “QVQLVESGGGLGQAGGSLSLSCAASGFNFSHYAMGWYIPAPGKERELVAAITRGGSTKYADSVKGRFTISRDNAKNTVDLEMNSLKPEDTAVYYCAKDKTYRNVRGVGYWGQGTQVTVSS”, which “polyreactivity (PSR sort gate)” value is on record?
A: high polyreactivity

Q: With “QVQLVESGGGLIQAVRSHRLSFAASGSTFRRYAMRWYRQEPGKEREISTSDGSTYYADSVKGRFTISRENAKNTVYLQMNSLKPEDTAVYYCAADGYRKLIEDITDDYCGQGTQVTVSS” as the sequence, how does the “polyreactivity (PSR sort gate)” value read?
A: low polyreactivity

Q: For “QVQLVESGGGLIQPGGSLRLSCAASGSTFANNAMGWYRQAPGKESELVASISSDGSTNYADSVKGRFTISRDNAKNTVYLQMNSLKPEDTAVYYCAADWYYSADYFHFGYWGQGTQVTVSS”, which “polyreactivity (PSR sort gate)” value is on record?
A: low polyreactivity
